# From FireProtDB (doi:10.1021/bi0362267)
# B1: Ribonuclease wild type, P00648 (protein)
# chain: MMKMEGIALKKRLSWISVCLLVLVSAAGMLFSTAAKTETSSHKAHTEAQVINTFDGVADYLQTYHKLPDNYITKSEAQALGWVASKGNLADVAPGKSIGGDIFSNREGKLPGKSGRTWREADINYTSGFRNSDRILYSSDWLIYKTTDHYQTFTKIR
# Conditions: Bacillus amyloliquefaciens, pH 6.3, Thermal, CD, Mes 50 mM, whole UniProt chain shown
protein,measurement,setting,value
B1,unfolding free energy,25 °C,9.5 kcal/mol
same,Tm,,52.2 °C
same,unfolding enthalpy (van 't Hoff),,137 kcal/mol
